From patent US20100221329A1 (SYNERGY PHARMACEUTICALS, published 2010)
Bridges are numbered along the chain shown (N, C = ends). Where no end group is shown, it is not given here.

Target: guanylate cyclase C (human, UniProt P25092 24-1073)
Experiment: cell-based or functional assay

guanylate cyclase C, sequence (P25092 24-1073): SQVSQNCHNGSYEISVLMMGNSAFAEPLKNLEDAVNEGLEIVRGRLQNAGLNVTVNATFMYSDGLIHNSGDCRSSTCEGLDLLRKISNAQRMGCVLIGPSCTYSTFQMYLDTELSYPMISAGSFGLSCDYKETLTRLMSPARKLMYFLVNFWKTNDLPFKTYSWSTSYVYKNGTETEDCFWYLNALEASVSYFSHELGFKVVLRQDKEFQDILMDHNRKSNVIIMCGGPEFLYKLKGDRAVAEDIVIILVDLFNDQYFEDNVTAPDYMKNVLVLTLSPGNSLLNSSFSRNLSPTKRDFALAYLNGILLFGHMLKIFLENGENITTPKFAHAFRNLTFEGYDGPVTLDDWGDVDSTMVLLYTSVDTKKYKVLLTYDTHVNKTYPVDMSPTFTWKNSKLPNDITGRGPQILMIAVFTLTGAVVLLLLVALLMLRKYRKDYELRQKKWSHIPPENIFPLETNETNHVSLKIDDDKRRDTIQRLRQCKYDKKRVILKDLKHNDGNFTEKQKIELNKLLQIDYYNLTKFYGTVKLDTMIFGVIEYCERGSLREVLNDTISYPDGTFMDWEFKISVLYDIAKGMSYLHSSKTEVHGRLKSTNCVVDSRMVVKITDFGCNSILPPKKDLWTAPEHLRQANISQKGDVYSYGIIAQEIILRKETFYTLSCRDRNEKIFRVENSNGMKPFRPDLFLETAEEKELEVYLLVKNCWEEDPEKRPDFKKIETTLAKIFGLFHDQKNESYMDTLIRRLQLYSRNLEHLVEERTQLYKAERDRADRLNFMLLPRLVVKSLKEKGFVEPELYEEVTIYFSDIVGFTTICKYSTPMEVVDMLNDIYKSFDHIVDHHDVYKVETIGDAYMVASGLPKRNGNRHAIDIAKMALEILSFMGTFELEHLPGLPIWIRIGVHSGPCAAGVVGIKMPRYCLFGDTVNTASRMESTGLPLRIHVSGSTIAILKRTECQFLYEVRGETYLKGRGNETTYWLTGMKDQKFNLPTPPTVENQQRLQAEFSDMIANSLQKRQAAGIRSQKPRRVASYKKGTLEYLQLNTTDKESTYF

B1: SP-338 (peptide)
peptide: NDECELCVNVACTGC
modifications: disulfide 4-12, 7-15
stimulation of cGMP synthesis in T84 cells (peptide at 1.0 µM, 30 min), biological activity relative to SP-304: ~80 % of the biological activity of SP-304
